Experimental data as given in patent publication US20140161821A1, “TREATMENT WITH ANTI-PCSK9 ANTIBODIES” (PFIZER INC., priority 2011, published 2014).

Assays:
[1] = Example 6 clinical study: safety and immunogenicity; assay type: in vivo, human; conditions: IV every 4 weeks, stable daily statin
Experimental: Subjects were seen periodically in the clinic for safety assessments and collection of blood for safety labs, lipid profiles, PK, PD, and immunogenicity samples. Telephone contacts were made prior to each visit to remind them of the 10-hour fasting requirements, during screening and on Day 3 to assess adverse events and document the contact in the subject's source document. […] Infusion rates were carefully controlled by an infusion device per protocol. Infusions were administered as a single infusion over approximately 60 minutes.

[2] = PK study, single bolus i.v. injection in cynomolgus monkeys, total antibody concentration; assay type: in vivo
[3] = target: T1, PCSK9 (Homo sapiens, UniProt Q8NBP7); test: Example 5 clinical study, four weekly IV doses: fasting LDL-C; assay type: in vivo, human Japanese subjects; conditions: weekly IV 0.25, 0.5, 1.0, 1.5 mg/kg on Days 1, 8, 15, 22; baseline about 155 mg/dL
T1 construct: PCSK9 antagonist antibody that antagonizes circulating PCSK9; endogenous in cells; host or cells: human subjects in clinical trials (in vivo, circulating PCSK9)
T1 sequence (Q8NBP7 153-692): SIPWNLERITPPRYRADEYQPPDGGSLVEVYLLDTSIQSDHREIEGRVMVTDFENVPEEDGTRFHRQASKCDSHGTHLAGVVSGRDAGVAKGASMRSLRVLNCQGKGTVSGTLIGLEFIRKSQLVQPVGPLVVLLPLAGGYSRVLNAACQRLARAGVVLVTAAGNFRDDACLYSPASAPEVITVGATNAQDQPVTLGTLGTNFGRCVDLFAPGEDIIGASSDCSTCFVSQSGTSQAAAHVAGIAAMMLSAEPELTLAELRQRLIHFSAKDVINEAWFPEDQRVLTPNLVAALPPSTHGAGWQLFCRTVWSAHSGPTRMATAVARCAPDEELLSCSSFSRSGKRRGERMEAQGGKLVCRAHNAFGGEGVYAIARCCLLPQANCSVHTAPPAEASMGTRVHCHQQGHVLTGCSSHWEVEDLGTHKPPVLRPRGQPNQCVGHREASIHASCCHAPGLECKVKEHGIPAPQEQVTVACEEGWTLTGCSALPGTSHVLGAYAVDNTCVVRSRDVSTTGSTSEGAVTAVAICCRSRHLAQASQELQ
T1 sequence (Q8NBP7 31-152 partner limits assumed): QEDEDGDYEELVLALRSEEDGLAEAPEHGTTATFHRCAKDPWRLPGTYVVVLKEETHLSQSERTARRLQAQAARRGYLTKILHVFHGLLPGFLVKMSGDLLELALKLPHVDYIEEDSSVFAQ
Text: This study was a randomized, multi-center, double-blind, placebo control, parallel designed trial with a 28 day screening period, 4 week treatment period and 8 week follow-up period (FIG. 11). […] For each subject, the study consisted of 3 periods: screening, treatment, and follow-up. […] The follow-up period will lasted approximately 8 weeks, from approximately Day 29 to the last visit (Day 78).

[4] = Example 2 clinical study, single escalating IV doses: pharmacokinetics (NCA); assay type: in vivo, human
Experimental: The subjects, investigator, and site personnel (except site personnel responsible for drug preparation) were blinded to treatment assignments, as was the CRO designee; while the Sponsor clinical research team was unblinded. The study was conducted in 6 planned cohorts of 8 subjects per cohort in an effort to seek a maximum tolerated dose or MTD (total of approximately 48 subjects). […] Doses were administered following an overnight fast as an intravenous infusion over 60 minutes. […] Infusions will be administered as a single infusion over 60 minutes. […]
Drug was prepared by qualified unblinded site personnel and dispensed in a blinded fashion to the patient and immediate study staff.
In addition, single PK samples were obtained on Days 4, 7, 14, 21, 28 and additional PK follow-up visit (if applicable). One sample was drawn at each time point.

[5] = target: T1, PCSK9; test: Example 6 clinical study, IV doses every 4 weeks on stable statin: lipids; assay type: in vivo; conditions: for LDL-C lowering, % below baseline: by Day 29 (FIG. 15)
Experimental: This study was a randomized, multi center, double blind, placebo control, parallel designed trial with a 3 week screening period, 12 week treatment period and 8 week follow up period.
Subjects enrolled in the study met all of the following criteria: men and women subjects greater than equal to age of 18; body mass index of 18.5 to 40 kg/m^2; total body weight greater than 50 kg (110 lbs) and less than 150 kg (330 lbs); on a stable daily dose of a statin, defined as atorvastatin 40 or 80 mg, rosuvastatin 20 or 40 mg or simvastatin 40 or 80 mg for a minimum of 45 days prior to Day 1; lipids meet the following criteria at two qualifying visits (screening and Day −7): fasting LDL-C greater than or equal to 100 mg/dL, ;
The pre-specified primary efficacy endpoint was the percentage change from baseline of LDL-C at Day 85 analyzed using an ANCOVA model. The final ANCOVA model contained terms for baseline LDL-C and treatment. To preserve the overall type I error rate at a level of 0.05 for the primary endpoint analysis, a Haybittle-Peto, boundary with 0.001 alpha spent was employed.
The LDL-C data were subsequently analyzed using mixed model repeated measures to estimate both the treatment by time and empirical dose-response profiles.

[6] = target: T2, PCSK9 (Mus musculus, UniProt Q80W65); test: Serum cholesterol in C57BL/6 mice after single IP dose; assay type: in vivo; conditions: 10 mg/kg single IP
T2 construct: endogenous in cells; host or cells: live C57BL/6 mice (in vivo, serum PCSK9)
T2 sequence (Q80W65 156-694): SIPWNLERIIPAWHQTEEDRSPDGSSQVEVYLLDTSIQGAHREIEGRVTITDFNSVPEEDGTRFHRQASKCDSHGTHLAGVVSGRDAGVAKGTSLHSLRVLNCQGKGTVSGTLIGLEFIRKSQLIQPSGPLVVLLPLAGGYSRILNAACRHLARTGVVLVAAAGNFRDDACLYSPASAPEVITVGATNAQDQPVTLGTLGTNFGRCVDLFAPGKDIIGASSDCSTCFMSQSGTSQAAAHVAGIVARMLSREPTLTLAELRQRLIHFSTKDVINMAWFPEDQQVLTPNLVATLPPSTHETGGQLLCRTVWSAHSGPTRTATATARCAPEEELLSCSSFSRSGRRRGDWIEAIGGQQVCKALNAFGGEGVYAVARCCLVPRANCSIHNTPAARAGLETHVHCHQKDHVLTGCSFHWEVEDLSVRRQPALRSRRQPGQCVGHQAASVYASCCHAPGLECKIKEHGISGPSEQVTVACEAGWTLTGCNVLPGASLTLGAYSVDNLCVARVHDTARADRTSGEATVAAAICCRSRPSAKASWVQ
T2 sequence (Q80W65 35-155 partner limits assumed): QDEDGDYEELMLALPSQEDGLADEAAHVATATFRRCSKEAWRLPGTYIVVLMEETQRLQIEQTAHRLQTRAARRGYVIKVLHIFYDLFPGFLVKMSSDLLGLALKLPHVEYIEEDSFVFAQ
Experimental: Serum cholesterol levels recovered to 69 mg/dL by day 7 post-treatment.

[7] = IV every 4 weeks, stable daily statin

B1: L1L3: humanized (<5% murine residues) monoclonal PCSK9 antagonist antibody that binds to secreted PCSK9; VH SEQ ID NO: 11, VL SEQ ID NO: 12 (antibody, V domains shown)
VH: QVQLVQSGAEVKKPGASVKVSCKASGYTFTSYYMHWVRQAPGQGLEWMGEISPFGGRTNYNEKFKSRVTMTRDTSTSTVYMELSSLRSEDTAVYYCARERPLYASDLWGQGTTVTVSS
VL: DIQMTQSPSSLSASVGDRVTITCRASQGISSALAWYQQKPGKAPKLLIYSASYRYTGVPSRFSGSGSGTDFTFTISSLQPEDIATYYCQQRYSLWRTFGQGTKLEIK
modifications: heavy chain variable region; light chain variable region
Anti-drug antibodies (ADA) [1]: No subject had positive ADA
Safety and tolerability [1]: generally safe and well-tolerated
Changes in LFTs, CK, ECGs, and BP ([1]; in most cases considered not related to treatment): transient, mild in nature
Estimated β-phase half-life ([2]; single i.v. 0.1 mg/kg): 16.1 h
Estimated β-phase half-life ([2]; single i.v. 1.0 mg/kg): 45.8 h
Estimated β-phase half-life ([2]; single i.v. 3.0 mg/kg): 55.9 h
Estimated β-phase half-life ([2]; single i.v. 10.0 mg/kg): 83.8 h
Estimated β-phase half-life ([2]; single i.v. 100.0 mg/kg): 126 h
Fasting LDL-C [3]: sustained, substantial and durable dose-dependent fasting LDL-C lowering
AUC(0-∞) ([4]; single IV 0.3 mg/kg, mean): 34997.88 ng·days/mL
Cl ([4]; single IV 0.3 mg/kg, mean): 8.70 mL/day/kg
Cmax ([4]; single IV 0.3 mg/kg, mean): 10.31967 µg/mL
Half-life ([4]; single IV 0.3 mg/kg, mean): 65.8 h
Vss ([4]; single IV 0.3 mg/kg, mean): 0.03177 L/kg
AUC(0-∞) ([4]; single IV 0.3 mg/kg, median): 33748.15 ng·days/mL
Cl ([4]; single IV 0.3 mg/kg, median): 8.92 mL/day/kg
Cmax ([4]; single IV 0.3 mg/kg, median): 10.5375 µg/mL
Half-life ([4]; single IV 0.3 mg/kg, median): 65 h
Vss ([4]; single IV 0.3 mg/kg, median): 0.03074 L/kg
AUC(0-∞) ([4]; single IV 1 mg/kg, mean): 156399.94 ng·days/mL
Cl ([4]; single IV 1 mg/kg, mean): 6.58 mL/day/kg
Cmax ([4]; single IV 1 mg/kg, mean): 29.25183 µg/mL
Half-life ([4]; single IV 1 mg/kg, mean): 115 h
Vss ([4]; single IV 1 mg/kg, mean): 0.04159 L/kg
AUC(0-∞) ([4]; single IV 1 mg/kg, median): 166736.58 ng·days/mL
Cl ([4]; single IV 1 mg/kg, median): 6.00 mL/day/kg
Cmax ([4]; single IV 1 mg/kg, median): 28.2315 µg/mL
Half-life ([4]; single IV 1 mg/kg, median): 114 h
Vss ([4]; single IV 1 mg/kg, median): 0.04234 L/kg
AUC(0-∞) ([4]; single IV 3 mg/kg, mean): 709485.10 ng·days/mL
Cl ([4]; single IV 3 mg/kg, mean): 4.54 mL/day/kg
Cmax ([4]; single IV 3 mg/kg, mean): 96.7115 µg/mL
Half-life ([4]; single IV 3 mg/kg, mean): 210 h
Vss ([4]; single IV 3 mg/kg, mean): 0.04906 L/kg
AUC(0-∞) ([4]; single IV 3 mg/kg, median): 728278.54 ng·days/mL
Cl ([4]; single IV 3 mg/kg, median): 4.12 mL/day/kg
Cmax ([4]; single IV 3 mg/kg, median): 100.6205 µg/mL
Half-life ([4]; single IV 3 mg/kg, median): 194 h
Vss ([4]; single IV 3 mg/kg, median): 0.04894 L/kg
AUC(0-∞) ([4]; single IV 6 mg/kg, mean): 1446945.71 ng·days/mL
Cl ([4]; single IV 6 mg/kg, mean): 4.33 mL/day/kg
Cmax ([4]; single IV 6 mg/kg, mean): 175.85433 µg/mL
Half-life ([4]; single IV 6 mg/kg, mean): 201 h
Vss ([4]; single IV 6 mg/kg, mean): 0.06045 L/kg
AUC(0-∞) ([4]; single IV 6 mg/kg, median): 1289916.44 ng·days/mL
Cl ([4]; single IV 6 mg/kg, median): 4.65 mL/day/kg
Cmax ([4]; single IV 6 mg/kg, median): 177.485 µg/mL
Half-life ([4]; single IV 6 mg/kg, median): 186 h
Vss ([4]; single IV 6 mg/kg, median): 0.06133 L/kg
AUC(0-∞) ([4]; single IV 12 mg/kg, mean): 3768691.17 ng·days/mL
Cl ([4]; single IV 12 mg/kg, mean): 3.28 mL/day/kg
Cmax ([4]; single IV 12 mg/kg, mean): 353.96017 µg/mL
Half-life ([4]; single IV 12 mg/kg, mean): 492.7 h
Vss ([4]; single IV 12 mg/kg, mean): 0.07225 L/kg
AUC(0-∞) ([4]; single IV 12 mg/kg, median): 3599992.39 ng·days/mL
Cl ([4]; single IV 12 mg/kg, median): 3.36 mL/day/kg
Cmax ([4]; single IV 12 mg/kg, median): 357.671 µg/mL
Half-life ([4]; single IV 12 mg/kg, median): 293.8 h
Vss ([4]; single IV 12 mg/kg, median): 0.05752 L/kg
AUC(0-∞) ([4]; single IV 18 mg/kg, mean): 4812012.99 ng·days/mL
Cl ([4]; single IV 18 mg/kg, mean): 3.85 mL/day/kg
Cmax ([4]; single IV 18 mg/kg, mean): 532.44917 µg/mL
Half-life ([4]; single IV 18 mg/kg, mean): 311.3 h
Vss ([4]; single IV 18 mg/kg, mean): 0.06546 L/kg
AUC(0-∞) ([4]; single IV 18 mg/kg, median): 4857618.28 ng·days/mL
Cl ([4]; single IV 18 mg/kg, median): 3.71 mL/day/kg
Cmax ([4]; single IV 18 mg/kg, median): 560.4635 µg/mL
Half-life ([4]; single IV 18 mg/kg, median): 282.2 h
Vss ([4]; single IV 18 mg/kg, median): 0.06083 L/kg
LDL-C lowering ([5]; 3 mg/kg and 6 mg/kg dosing regimens, persisted for 28 days (FIG. 16)): greater than 30%
LDL-C lowering, % below baseline ([5]; 3 mg/kg dosing regimen, stable daily statin): about 50%
LDL-C lowering, % below baseline ([5]; 6 mg/kg dosing regimen, stable daily statin): about 65%
Effect on triglycerides [5, 7]: No effect
Elevation of HDL [5, 7]: up to 9%
Difference in LS means (Test-Reference) of percentage changes from baseline for LDL-C ([5]; L1L3 0.25 mg/kg vs. Placebo on Day 85, MMRM): 2.67
Difference in LS means (Test-Reference) of percentage changes from baseline for LDL-C ([5]; L1L3 1 mg/kg vs. Placebo on Day 85, MMRM): 0.83
Difference in LS means (Test-Reference) of percentage changes from baseline for LDL-C ([5]; L1L3 3 mg/kg vs. Placebo on Day 85, MMRM): −38.92
Difference in LS means (Test-Reference) of percentage changes from baseline for LDL-C ([5]; L1L3 6 mg/kg vs. Placebo on Day 85, MMRM): −50.14
Serum cholesterol reduction vs saline treated controls ([6]; 48 hours post treatment): 37%
Serum cholesterol levels ([6]; 4 days post-treatment): 44 mg/dL
Serum cholesterol reduction vs control animals ([6]; 4 days post-treatment): 47%
Serum cholesterol levels (recovered) ([6]; day 7 post-treatment): 69 mg/dL
Serum cholesterol levels ([6]; normal diet, 48 hours post treatment): 47 mg/dL
